The record followed here is the NTF2 design screens of Basanta et al. (2020).

A short description of this data set: protease stability score; higher = more stable; yeast display proteolysis, trypsin and chymotrypsin.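 Note: relative to predicted unfolded state with 0 unfolded-like and 1 meaning tenfold more protease.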
“DEEKELSKKLLEVFIKVMRTGDWRAFSERLDPHTRTDVNGVDIHGRENTLELLRRLEEEWGVSRVDVRIHDADHQGDYIKFDGIEIYNGVERRTRMVSEKFNGRWRNKIFILD” returned a protease stability score of 0.238.

“DEEKEMNRHFLEHLKTAYETGDEDSIIKNIDPHYRIIVGDKDLIGMEHVKKWLHHARIHEIHPRRLEVQGNKITNDIHVVGEVNGVLRSTDQIWYLLKVDGRWLIESIEIK” came in with a protease stability score of 1.11.

“DEEKERMEELLRLWVEAVRTGDEETLHKLMDPDVRIEYGDKDHHGREEMHRMMREWYERVDVINTYHVRRIKIVDGKARVDAELDGTIDGKRVIFREILISSKYNGQWTVTSISIK”: the protease stability score stood at 1.43.

As for “DEEKERMFEHWEDVLRDWYTGNEDNLRHLFDPHARTDVNGVELHGMDLISEVLRRHLEEIRIKSMHLRELRSVDGRIHEHGELRGRVNGVDVRREVRVHLTVVNGRMKEMRFENI”, the protease stability score stood at 0.394.

As for “DEEKERSDRLYERFFTAIFTGDEDLIRKLLDPDTRYQIGDKSSHGRDDIYDRIREMRNKVPNLRWDIRHVRIQGEKVHLDVEFNVNGKRDEFHIELDIVNGRLRHIRIEPV”, the protease stability score came to 1.24.

In turn, “DEEKESAERWLHIFLHSMDTGDEDKIRKLLDPNVLNDVGDKVLIGRELAFKWFHHLRFRKVHLRDFRIINGRIEVDIDVRGEINGKEDHFRLEVDLRKINGRWVLHEIRID” gave a protease stability score of 2.81.

Consider “DEEKETAHEIHRILIKAWITGDEDTLNELLDPNVRIDINGVDTHGMEELKRVFEEHKKEIRWKDVRPRHIHVINGQIHSDTDHNGVVNGVTRTRKAHWIIVVIDGKVHSIKFIIH”, for which the protease stability score was 1.29.

As to “DEEKEVMKELYEMLIHDLLTGNEESLHKLLDPHVKVDIDGKILHGMEATVKWWKEAGADHTDIHSVERQGEKIIINMILRVGDKTLRLHVHIIVVNGRVESIRVELRHE”, the protease stability score was 1.01.

Sequence “DEEKEYAIRILREFTKYWETGDFERMKELFDPNARLEIGDKRAVGRDKVLEVLLRELHELRFKHFELREEDVIGEKKHSELIVHMEIDGVWHRRNIRVEIVVIDGKIHRMRFEQH” registered a protease stability score of 2.37.

As to “DEEKHEALRLTREFLKLFFTGDWEKLVRLIDPDAKVEIGNFESVGRENIAHLLHLLNEEWRINDMRIHSFTVVNGQVRMDTEINGIYGDKNYETRTEIESVVIDGRLKHFSIRER”, the protease stability score is 1.24.

With “DEEKHEFELLLRLWLRTMETGDEQMSRRLVDPNVRIEIGDKDIHGREEMSRIVRHWRVHDYDIKDSTVQGDKAHLDGHIEGTIDGKTTRFHIHLNLEKINGRWLIKEVVVE”, the protease stability score was 2.19.

On to “DEEKHELEERVRLHIERWKTGDEDTLRHYADPDVRTHIDVGDKKFNYHGREEIVQAYKHLLDQLGVKHSEIDRSTAVNGVVHLHMTLRFDGVRMEWRIDIWIIDGRTKTIHIEIRHR”, for which the protease stability score was found to be 0.942.

With “DEEKHILDRYWEEWLHALITGDEERLMELIDPNAKHVFNGKELHGRESLTELLRRLGMEIKDIRDHDLKVIGDKLHIDTRIDGIINGRQTTIRMHIIATKIDGKWVHTKLEVR”, the protease stability score was found to be 1.23.

Consider “DEEKHLALFLYRILVKWWLTGNEEDESHLADPHTRFEVNGVELIGRELSSHMIERELREIRVIIEIEEFRTVGDKVDIRLTLKYEYGDKEDSRESHLELIIIDGKTTHVEVRER”, for which the protease stability score was found to be 1.6.

The sequence “DEEKHSAEHFMRLWIESFETGDEESIKRLMDPHAKSDFNGVEMHGREYLEVIKREMRVKSSRLHVKHIDVIDGVVIIEGRMILDGEINGVRTRLESDVRFVVEKFDGRWILRSSSIK” came in with a protease stability score of 1.31.

“DEEKKAIRKVWELVIHSLVTGDEDSVEKLLDPHVRVHINGVHLHGMETFRHTFHEWRLEIKSVHIQDMDSINGVARLDISFVGRFKFDGRVEETIIDIHLVVNKINGRWVIEEQKFE”: the protease stability score is 1.48.

“DEEKKANHFNKEFDRNVQRNNETELRKMVDPNARVNVGEQNYSGRNKMVKIITDWLRKYDKFTIDVRRIDVHGNRIFIDFEMVVVSNGQRRTTEIRVVVEEHNGRLHIRVWEIT”: the protease stability score was determined as 1.03.

“DEEKKDIKHWLEKWITDTRTGDEEEILKMLDPNVRTEQGEFELHGRDALKHYIDRFDHIHEVDLEVKHVTEQGDKLHIKGTLRMDGIVDGVRRTFYFRTILIVRKIDGRWAVSRVILL” came in with a protease stability score of 2.32.
